Assay results reported in patent US5962294A, “Compositions and methods for the identification and synthesis of sialyltransferases” (The Regents of the University of California, priority 1993, dated 1999).
Residue numbers refer to the chain shown, from its start.

Assays:
[1] = biological target: T1, ST3O (Sus scrofa, UniProt Q02745); assay: Acceptor specificity of ST3O (Table 4); settings: acceptor 0.2 mM
T1 sequence (Q02745 28-343 limits assumed): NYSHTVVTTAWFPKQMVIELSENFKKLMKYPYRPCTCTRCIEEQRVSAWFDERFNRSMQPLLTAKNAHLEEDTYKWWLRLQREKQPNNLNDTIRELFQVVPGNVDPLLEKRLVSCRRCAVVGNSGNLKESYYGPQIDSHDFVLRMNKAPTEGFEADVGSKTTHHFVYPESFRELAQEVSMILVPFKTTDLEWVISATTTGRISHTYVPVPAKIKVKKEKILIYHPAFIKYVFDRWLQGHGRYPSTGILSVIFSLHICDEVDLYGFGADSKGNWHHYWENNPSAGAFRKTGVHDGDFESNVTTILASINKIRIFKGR

[2] = biological target: T2, ST3N (Rattus norvegicus, UniProt Q02734); assay: Acceptor specificity of ST3N (Table 4)
T2 sequence (Q02734 29-374 limits assumed): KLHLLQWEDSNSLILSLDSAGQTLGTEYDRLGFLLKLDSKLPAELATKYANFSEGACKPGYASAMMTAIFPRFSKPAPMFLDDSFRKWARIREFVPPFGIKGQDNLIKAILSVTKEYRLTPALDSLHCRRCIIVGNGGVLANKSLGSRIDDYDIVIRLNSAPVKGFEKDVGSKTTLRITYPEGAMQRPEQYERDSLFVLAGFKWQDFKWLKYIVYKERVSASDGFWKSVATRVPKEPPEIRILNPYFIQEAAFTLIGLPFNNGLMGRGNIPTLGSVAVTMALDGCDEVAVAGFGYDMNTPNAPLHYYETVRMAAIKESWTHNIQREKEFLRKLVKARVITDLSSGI

[3] = biological target: T3, rat ST3N (Rattus norvegicus, UniProt Q02734); assay: Acceptor specificity of soluble rat ST3N fusion protein (Table 3); settings: acceptor 0.2 mM; relative to LNT
T3 sequence (Q02734 29-374 limits assumed): T2 sequence (Q02734 29-374 limits assumed)

[4] = biological target: T4, human ST3N (Homo sapiens, UniProt Q11203); assay: Acceptor specificity of soluble human ST3N (protein A fusion from COS-1 cells, on IgG Sepharose); settings: acceptor 0.2 mM; relative to LNT
T4 sequence (Q11203 62-375): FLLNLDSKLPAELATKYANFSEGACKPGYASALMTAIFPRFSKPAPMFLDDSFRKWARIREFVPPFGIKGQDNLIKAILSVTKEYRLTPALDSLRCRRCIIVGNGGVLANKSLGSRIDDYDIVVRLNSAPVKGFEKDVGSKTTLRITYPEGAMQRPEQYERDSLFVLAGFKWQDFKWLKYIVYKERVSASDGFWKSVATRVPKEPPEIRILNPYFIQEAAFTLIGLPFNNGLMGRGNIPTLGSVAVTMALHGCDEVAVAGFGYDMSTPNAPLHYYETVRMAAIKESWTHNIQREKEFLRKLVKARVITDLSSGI

[5] = biological target: [14C]NeuAc labeled α1-acid glycoprotein produced from the asialo-derivative using ST3 enzyme
[6] = biological target: [14C]NeuAc labeled α1-acid glycoprotein produced from the asialo-derivative using ST3N enzyme
[7] = biological target: [14C]NeuAc labeled α1-acid glycoprotein produced from the asialo-derivative using ST6N enzyme
[8] = biological target: antifreeze glycoprotein (Galβ1,3GalNAc-Thr)
[9] = biological target: asialo-α1-acid glycoprotein (Galβ1,4GlcNAc-R)
[10] = biological target: asialofetuin (Galβ1,3GalNAc-Thr/Ser and Galβ1,4GlcNAc-R)
[11] = biological target: ovine submaxillary asialo-mucin (GalNAc-Thr/Ser) (ovine)
[12] = biological target: asialo-α1-acid glycoprotein (Galβ1,4GlcNAc-R); remark: listed apart in the source
[13] = system: sialidase from Newcastle disease virus; assay type: biochemical; settings: product formed by the named enzyme, hydrolyzed with Newcastle disease virus sialidase
[14] = system: acceptor substrate antifreeze glycoprotein (AFGP); assay: Sialyltransferase activity of purified porcine liver α2,3-0 sialyltransferase; assay type: biochemical; settings: after third CDP-hexanolamine agarose column
From the text: FIG. 4 Purification of the α2,3-0 sialyltransferase on CDP-hexanolamine agarose (column III, CDP elution). […] In columns A and B elution of enzyme activity correlated predominantly with 48 kDa and a 45 kDa protein species, respectively (see inset, SDS-PAGE). These two species, form A and form B of the α2,3 sialyltransferase, had specific activities of 8-10 units/mg protein. The 48 kDA and 45 kDA species were blotted to a PVDF membrane and analyzed by NH2 -terminal sequencing.
The enzyme was purified from a porcine liver Triton X-100 extract by affinity chromatography on three successive columns of CDP-hexanolamineagarose. The elution profile from the first and third purification steps are shown in FIG. 3 and FIG. 4, respectively. […] These two peaks were separated by combining the indicated fractions into pools A and B, these two pools were subsequently found to be enriched in two different molecular weight forms of the α2,3-0 sialyltransferase.
The membranes were extracted three times with buffer (Conradt, H. S. et al., in Sialic Acids 1988 Proceedings of the Japanese-German Symposium on Sialic Acids (Schauer and Yamakawa, eds.) pp. 104-105, Verlag Wissenschaft and Bildung, Kiel [1988]) and the extract was passed over a 1.5 l CDP-hexanolamine agarose column (column 1) (16 umol/ml). After washing the column with 3 L buffer B, the column was eluted with a linear gradient of 0.05 to 1.0 M KCL (2.5 l×2.5 l) in buffer B. Fractions containing α2,3 sialyltransferase were combined into two pools A and B, representing the main part and the trailing end of the peak, respectively (see FIG. 3). The pools were dialysed against buffer B and subjected to another round of affinity chromatography on CDP-hexanolamine agarose (columns IIA and IIB). A 150 ml column was used for pool A and a 30 ml column was used for pool B; two preparations from column I (from total of 4 kg liver) were loaded on the same column in step II. […]

[15] = system: acceptor substrate antifreeze glycoprotein (AFGP); settings: Rearick et al. 1979; cited from earlier work
[16] = biological target: T5, (Sus scrofa, UniProt Q02745); assay: Sialyltransferase activity in media of COS-1 cells transfected with sp-ST; settings: 48 hours post-transfection, media concentrated
T5 sequence (Q02745 28-343 limits assumed): T1 sequence (Q02745 28-343 limits assumed)

Sequence of acceptor substrate antifreeze glycoprotein (AFGP) (as listed by the source): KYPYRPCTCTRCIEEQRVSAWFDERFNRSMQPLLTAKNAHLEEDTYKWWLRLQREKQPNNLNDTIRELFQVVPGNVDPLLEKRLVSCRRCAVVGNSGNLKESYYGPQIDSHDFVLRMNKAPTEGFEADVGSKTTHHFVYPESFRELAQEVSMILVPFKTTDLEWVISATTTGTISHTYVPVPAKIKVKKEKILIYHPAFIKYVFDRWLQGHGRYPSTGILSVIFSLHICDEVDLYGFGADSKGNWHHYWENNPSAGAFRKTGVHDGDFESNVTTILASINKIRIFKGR

## CC(=O)N[C@H]1C(O)O[C@H](CO)[C@@H](O)[C@@H]1O[C@@H]1O[C@H](CO)[C@H](O)[C@H](O)[C@H]1O (stereo partly drawn) [Galβ1,3GlcNAc]
[1]
  Relative rate (%) ST30: 2%
[2]; acceptor 0.2 mM
  Relative rate (%) ST3N: 49%
[3]
  Relative activity (%) Rat: 49%
[4]
  Relative activity (%) Human: 48%

## CC(=O)N[C@H]1C(O)O[C@H](CO)[C@@H](O[C@@H]2O[C@H](CO)[C@H](O)[C@H](O)[C@H]2O)[C@@H]1O (stereo partly drawn) [Galβ1,4GlcNAc]
[1]
  Relative rate (%) ST30: 0%
[2]; acceptor 0.2 mM
  Relative rate (%) ST3N: 19%
[2]; acceptor 2.0 mM
  Relative rate (%) ST3N: 46%
[3]
  Relative activity (%) Rat: 19%
[4]
  Relative activity (%) Human: 22%

## sialidase from Newcastle disease virus (Oxford Glycosystems) (enzyme)
[5]
  release of [14C]NeuAc from labeled glycoprotein (% of total 14C NeuAc released): 83
[6]
  release of [14C]NeuAc from labeled glycoprotein (% of total 14C NeuAc released): 82
[7]
  release of [14C]NeuAc from labeled glycoprotein (% of total 14C NeuAc released): 0

## signal peptide-ST (sp-ST), soluble form of porcine Galβ1,3GalNAc α2,3 sialyltransferase (pSVL-spST) (enzyme)
[8]
  Relative rate (%) of sialic acid transfer, acceptor 0.2 mM: 57%
[9]
  Relative rate (%) of sialic acid transfer, acceptor 0.2 mM: 0%
[10]
  Relative rate (%) of sialic acid transfer, acceptor 0.2 mM: 26%
[11]
  Relative rate (%) of sialic acid transfer, acceptor 0.2 mM: 5%

## soluble protein A/ST3 fusion (expression plasmid AZ3), human ST3 sialyltransferase (from UniProt P02976) (enzyme)
[8]
  Relative rate (%) of sialic acid transfer, acceptor 0.2 mM: 50%
[9]
  Relative rate (%) of sialic acid transfer, acceptor 0.2 mM: 51%
[10]
  Relative rate (%) of sialic acid transfer, acceptor 0.2 mM: 92%
[11]
  Relative rate (%) of sialic acid transfer, acceptor 0.2 mM: 3.8%

## soluble protein A/human ST3N fusion (expression plasmid A3NHP), human Galβ1,3(4)GlcNAc α2,3-sialyltransferase (from UniProt P02976) (enzyme)
[12]
  Relative activity (%), acceptor 0.2 mM: 14%

B1: rat Galβ1,4GlcNAc α2,6-sialyltransferase (protein)
chain: SKQDPKEDIPILSYHRVTAKVKPQPSFQVWDKDSTYSKLNPRLLKIWRNYLNMNKYKVSYKGPGPGVKFSVEALRCHLRDHVNVSMIEATDFPFNTTEWEGYLPKENFRTKVGPWQRCAVVSSAGSLKNSQLGREIDNHDAVLRFNGAPTDNFQQDVGSKTTIRLMNSQLVTTEKRFLKDSLYTEGILIVWDPSVYHADIPKWYQKPDYNFFETYKSYRRLDPSQPFYILKPQMPWELWDIIQEISADLIQPNPPSSGMLGIIIMMTLCDQVDIYEFLPSKRKTDVCYYHQKFFDSACTMGAYHPLLFEKNMVKHLNEGTDEDIYLFGKATLSGFRNIRC
[13]
  total [14C]NeuAc released from labeled α1-acid glycoprotein product: 0%

B2: Form B: 45 kDa molecular weight form of the porcine liver α2,3 sialyltransferase (protein)
chain: T1 sequence (Q02745 28-343 limits assumed) with R201T
[14]
  specific activity: 8-10 units/mg protein
[15]
  catalytic activity (in words): fully catalytically active

B3: sp-ST: fusion of insulin signal sequence, 9 linker amino acids and the catalytic domain of α2,3-0 sialyltransferase (protein)
chain: T1 sequence (Q02745 28-343 limits assumed) with R201T
[16]
  sialyltransferase activity in media: contained milliunits/ml of the sialyltransferase

B4: rat Galβ1,3(4)GlcNAc α2,3 sialyltransferase (protein)
chain: T2 sequence (Q02734 29-374 limits assumed) with W226S, G257R
[13]
  total [14C]NeuAc released from labeled α1-acid glycoprotein product: 82%

B5: ST3: human sialyltransferase of SEQ. ID. NO:12; β-galactoside α2,3-sialyltransferase (protein)
chain: MCPAGWKLLAMLALVLVVMVWYSISREDRYIEPFYFPIPEKKEPCLQGEAESKASKLFGNYSRDQPIFLRLEDYFWVKTPSAYELPYGTKGSEDLLLRVLAITSSSIPKNIQSLRCRRCVVVGNGHRLRNSSLGDAINKYDVVIRLNNAPVAGYEGDVGSKTTMRLFYPESAHFDPKVENNPDTLLVLVAFKAMDFHWIETILSDKKRVRKGFWKQPPLIWDVNPKQIRILNPFFMEIAADKLLSLPMQQPRKIKQKPTTGLLAITLALHLCDLVHIAGFGYPDAYNKKQTIHYYEQITLKSMAGSGHNVSQEALAIKRMLEMGAIKNLTSF
[13]
  total [14C]NeuAc released from labeled α1-acid glycoprotein product: 83%
